B1: AsHPPDm-F372A-02: Avena sativa HPPD mutant F372A, SEQ ID NO: 4; gene SEQ ID NO: 6 (protein)
chain: MPPTPATATGAAAAAVTPEHAARSFPRVVRVNPRSDRFPVLSFHHVELWCADAASAAGRFSFALGAPLAARSDLSTGNSAHASLLLRSGALAFLFTAPYAPPPQEAATAAATASIPSFSADAARTFAAAHGLAVRSVGVRVADAAEAFRVSVAGGARPAFAPADLGHGFGLAEVELYGDVVLRFVSYPDETDLPFLPGFERVSSPGAVDYGLTRFDHVVGNVPEMAPVIDYMKGFLGFHEFAEFTAEDVGTTESGLNSVVLANNSEAVLLPLNEPVHGTKRRSQIQTYLEYHGGPGVQHIALASNDVLRTLREMRARTPMGGFEFMAPPQAKYYEGVRRIAGDVLSEEQIKECQELGVLVDRDDQGVLLQIATKPVGDRPTFFLEMIQRIGCMEKDEVGQEYQKGGCGGFGKGNFSELFKSIEDYEKSLEVKQSVVAQKS
modifications: AsHPPDm-F372A Amido Acid Sequence
B2: PfHPPDm-F372A-02: Pseudomonas fluorescens HPPD mutant F372A, SEQ ID NO: 30 (protein)
chain: MADLYENPMGLMGFEFIEFASPTPGTLEPIFEIMGFTKVATHRSKNVHLYRQGEINLILNNEPNSIASYFAAEHGPSVCGMAFRVKDSQKAYNRALELGAQPIHIDTGPMELNLPAIKGIGGAPLYLIDRFGEGSSIYDIDFVYLEGVERNPVGAGLKVIDHLTHNVYRGRMVYWANFYEKLFNFREARYFDIKGEYTGLTSKAMSAPDGMIRIPLNEESSKGAGQIEEFLMQFNGEGIQHVAFLTDDLVKTWDALKKIGMRFMTAPPDTYYEMLEGRLPDHGEPVDQLQARGILLDGSSVEGDKRLLLQIASETLMGPVFFEFIQRKGDDGFGEGNFKALFESIERDQVRRGVLTAD
modifications: PfHPPDm-F372A Amino Acid Sequence
B3: ZmHPPDm-F372A-02: Zea mays HPPD mutant F372A, SEQ ID NO: 20 (protein)
chain: MPPTPTAAAAGAAVAAASAAEQAAFRLVGHRNFVRFNPRSDRFHTLAFHHVELWCADAASAAGRFSFGLGAPLAARSDLSTGNSAHASLLLRSGSLSFLFTAPYAHGADAATAALPSFSAAAARRFAADHGLAVRAVALRVADAEEAFRTSVAAGARPAFGPVDLGRGFRLAEVELYGDVVLRYVSYPDGAAGEPFLPGFEGVASPGAADYGLSRFDHIVGNVPELAPAAAYFAGFTGFHEFAEFTTEDVGTAESGLNSMVLANNSENVLLPLNEPVHGTKRRSQIQTFLDHHGGPGVQHMALASDDVLRTLREMQARSAMGGFEFMAPPTSDYYDGVRRRAGDVLTEAQIKECQELGVLVDRDDQGVLLQIAPKPVGDRPTLFLEIIQRIGCMERDEKGQEYQKGGCGGFGKGNFSQLFKSIEDYEKSLEAMQAAAAATAQGS
modifications: ZmHPPDm-F372A Amino Acid Sequence

Assays:
[1] = system: Arabidopsis thaliana T1 plants; assay: Topramezone tolerance of transgenic Arabidopsis thaliana T1 plants (pesticide damage grade by bleached leaf area, score, resistance evaluation); format: in vivo; conditions: for Classification and statistics of the grade of pesticide damage Grade 0 / Classification and statistics of the grade of pesticide damage Grade 1 / Classification and statistics of the grade of pesticide damage Grade 2 / Classification and statistics of the grade of pesticide damage Grade 3 / Classification and statistics of pesticide damage grade Grade 0 / Classification and statistics of pesticide damage grade Grade 1 / Classification and statistics of pesticide damage grade Grade 2 / Classification and statistics of pesticide damage grade Grade 3: number of plants (of 16) in this grade; for Classification and statistics of the grade of pesticide damage Grade 0 / Classification and statistics of the grade of pesticide damage Grade 1 / Classification and statistics of the grade of pesticide damage Grade 2 / Classification and statistics of the grade of pesticide damage Grade 3 / Scores / Resistance evaluation / Classification and statistics of pesticide damage grade Grade 0 / Classification and statistics of pesticide damage grade Grade 1 / Classification and statistics of pesticide damage grade Grade 2 / Classification and statistics of pesticide damage grade Grade 3: 7 DAT; for Scores: score for pesticide damage 0-100; for Grade 0 (number of plants) / Grade 1 (number of plants) / Grade 2 (number of plants) / Grade 3 (number of plants) / Resistance Grade / score: mutation combination, Table 8
Outline: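 Eighteen days after sowing, wild-type and HPPD-transgenic T1 Arabidopsis receive a topramezone spray at 1×, 2× or 4× field rate (25–100 g ai/ha) or water. Seven days later each plant is graded by its proportion of bleached leaf area.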

soybean T1 plants = assay: Herbicide tolerance of transgenic soybean T1 plants to topramezone; format: in vivo; conditions: topramezone 50 and 100 g ai/ha, 7 DAT, compared to control vector DBN11375NN and wild-type
Text: The Arabidopsisthaliana T1 plants into which the AsHPPDm-F372A-02 nucleotide sequence was introduced, Arabidopsis thaliana T1 plants into which the AsHPPD-02 nucleotide sequence was introduced and wild-type Arabidopsisthaliana plants (18 days after sowing) were sprayed with topramezone at four different concentrations, i.e., 25 g ai/ha (one-fold field concentration, 1×), 50 g ai/ha (two-fold field concentration, 2×), 100 g ai/ha (four-fold field concentration, 4×) and 0 g ai/ha (water, 0×) to determine the tolerance of Arabidopsisthaliana to the herbicide. The degree of damage caused by the herbicide was measured for each plant according to the proportion of bleached leaf area (the proportion of bleached leaf area=bleached leaf area/total leaf area×100%) 7 days after spraying (7 DAT): the case where there is basically no bleached phenotype is defined as grade 0, the case where the proportion of bleached leaf area is less than 50% is defined as grade 1,the case where the proportion of bleached leaf area is more than 50% is defined as grade 2, and the case where the proportion of bleached leaf area is 100% grade is defined as grade 3.
The soybean T1 plants into which the AsHPPDm-F372A-02 nucleotide sequence was introduced, soybean T1 plants into which the ZmHPPDm-F372A-02 nucleotide sequence was introduced, soybean T1 plants into which the PfHPPDm-F372A-02 nucleotide sequence was introduced, soybean T1 plants into which the AsHPPDm-F372A-A110 nucleotide sequence was introduced, soybean T1 plants into which, the PfHPPDm-F372A-G413W nucleotide sequence was introduced, soybean T1 plants into which the control vector DBN11375NN was introduced and wild-type soybean plants (V3-V4 at seedling stage) were sprayed with topramezone at two different concentrations respectively, i.e. 50 g ai/ha (2-fold field concentration, 2 ×) and 100 g ai/ha (4-fold field concentration, 4 ×) to detect the herbicide tolerance of soybean plants. According to the method in point 6 of Example 1, after 7 days of spraying (7 DAT), the damage degree of each plant by the herbicide was statistically analyzed, and the scoring and resistance evaluation were carried out accordingly. The soybean plants into which the AsHPPDm-F372A-02 nucleotide sequence was introduced were of two strains in total (S1 and S2), the soybean plants into which the ZmHPPDm-F372A-02 nucleotide sequence was introduced were of two strains in total (S3 and S4), the soybean plants into which the PfHPPDm-F372A-02 nucleotide sequence was introduced were of two strains in total (S5 and S6), the soybean plants into which the AsHPPDm-F372A-Al 10 nucleotide sequence was introduced were of two strains in total (S7 and S8), the soybean plants into which the PfHPPDm-F372A-G413W nucleotide sequence was introduced were of two strains in total (S9 and S10), the soybean plants into which the control vector DBN11375NN nucleotide sequence was introduced were of one strain in total (S11), and the wild-type soybean plants were of one strain in total (CK1); and 8 plants were selected from each strain and detected.

[2] = HPPDs from different species, topramezone 25 g ai/ha (1x)
[3] = HPPDs from different species, topramezone 100 g ai/ha (4x)

Molecule | Grade 0 (number of plants) ([1]; topramezone 25 g ai/ha) | Grade 1 (number of plants) ([1]; topramezone 25 g ai/ha) | Grade 2 (number of plants) ([1]; topramezone 25 g ai/ha) | Grade 3 (number of plants) ([1]; topramezone 25 g ai/ha) | Resistance Grade ([1]; topramezone 25 g ai/ha) | score ([1]; topramezone 25 g ai/ha) | Grade 0 (number of plants) ([1]; topramezone 100 g ai/ha) | Grade 1 (number of plants) ([1]; topramezone 100 g ai/ha) | Grade 2 (number of plants) ([1]; topramezone 100 g ai/ha) | Grade 3 (number of plants) ([1]; topramezone 100 g ai/ha) | Resistance Grade ([1]; topramezone 100 g ai/ha) | score ([1]; topramezone 100 g ai/ha) | tolerance to topramezone, in words (soybean T1 plants) | Classification and statistics of pesticide damage grade Grade 0 [1, 2] | Classification and statistics of pesticide damage grade Grade 1 [1, 2] | Classification and statistics of pesticide damage grade Grade 2 [1, 2] | Classification and statistics of pesticide damage grade Grade 3 [1, 2] | Classification and statistics of pesticide damage grade Grade 0 [1, 3] | Classification and statistics of pesticide damage grade Grade 1 [1, 3] | Classification and statistics of pesticide damage grade Grade 2 [1, 3] | further results
B1 | 20 | 0 | 0 | 0 | Highly resistant | 0 | 20 | 0 | 0 | 0 | Highly resistant | 0 | higher tolerance |  |  |  |  |  |  |  | resistance evaluation stated in the text ([1]; Arabidopsis thaliana T1 plants sprayed with topramezone, all tested concentrations): highly resistant (highly resistant plants (scores 0-15)); Classification and statistics of the grade of pesticide damage Grade 0 ([1]; topramezone 25 g ai/ha (1x)): 16; Classification and statistics of the grade of pesticide damage Grade 1 ([1]; topramezone 25 g ai/ha (1x)): 0; Classification and statistics of the grade of pesticide damage Grade 2 ([1]; topramezone 25 g ai/ha (1x)): 0; Classification and statistics of the grade of pesticide damage Grade 3 ([1]; topramezone 25 g ai/ha (1x)): 0; Classification and statistics of the grade of pesticide damage Grade 0 ([1]; topramezone 50 g ai/ha (2x)): 16; Classification and statistics of the grade of pesticide damage Grade 1 ([1]; topramezone 50 g ai/ha (2x)): 0; Classification and statistics of the grade of pesticide damage Grade 2 ([1]; topramezone 50 g ai/ha (2x)): 0; Classification and statistics of the grade of pesticide damage Grade 3 ([1]; topramezone 50 g ai/ha (2x)): 0; Classification and statistics of the grade of pesticide damage Grade 0 ([1]; topramezone 100 g ai/ha (4x)): 16; Classification and statistics of the grade of pesticide damage Grade 1 ([1]; topramezone 100 g ai/ha (4x)): 0; Classification and statistics of the grade of pesticide damage Grade 2 ([1]; topramezone 100 g ai/ha (4x)): 0; Classification and statistics of the grade of pesticide damage Grade 3 ([1]; topramezone 100 g ai/ha (4x)): 0; Scores ([1]; topramezone 25 g ai/ha (1x)): 0; Scores ([1]; topramezone 50 g ai/ha (2x)): 0; Scores ([1]; topramezone 100 g ai/ha (4x)): 0; Resistance evaluation ([1]; topramezone 25 g ai/ha (1x)): highly resistant (highly resistant plants (scores 0-15)); Resistance evaluation ([1]; topramezone 50 g ai/ha (2x)): highly resistant (highly resistant plants (scores 0-15)); Resistance evaluation ([1]; topramezone 100 g ai/ha (4x)): highly resistant (highly resistant plants (scores 0-15))
B2 | 20 | 0 | 0 | 0 | Highly resistant | 0 | 16 | 4 | 0 | 0 | Highly resistant | 7 | higher tolerance | 16 | 0 | 0 | 0 | 12 | 4 | 0 | Classification and statistics of pesticide damage grade Grade 3 [1, 3]: 0; Scores [1, 2]: 0; Scores [1, 3]: 8; Resistance evaluation [1, 2]: highly resistant (highly resistant plants (scores 0-15)); Resistance evaluation [1, 3]: highly resistant (highly resistant plants (scores 0-15))
B3 |  |  |  |  |  |  |  |  |  |  |  |  | higher tolerance | 16 | 0 | 0 | 0 | 4 | 12 | 0 | Classification and statistics of pesticide damage grade Grade 3 [1, 3]: 0; Scores [1, 2]: 0; Scores [1, 3]: 25; Resistance evaluation [1, 2]: highly resistant (highly resistant plants (scores 0-15)); Resistance evaluation [1, 3]: moderately resistant (moderately resistant plants (scores 16-33))

— US20230212587A1, “Mutant Hydroxyphenylpyruvate Dioxygenase Polypeptide, Encoding Gene Thereof and Use Therefor” (Beijing Dabeinong Biotechnology Co., Ltd., priority 2019, published 2023)
